Laboratory results as given in article PMC11649247.

Biological target: Mycobacterium tuberculosis polyketide synthase 13 (Mt-Pks13) (Mycobacterium tuberculosis) (UniProt I6X8D2)
Experiment: AUC; sedimentation velocity at pH 6 (of a series from pH 6 to 8); triple buffer (20 mM each sodium acetate, Tris/HCl, CHES), 150 mM NaCl, 2.5 mM βME; 30 000 r.p.m.; 4 °C or 20 °C; dimer to monomers

## Mycobacterium tuberculosis polyketide synthase 13 (Mt-Pks13) (from UniProt I6X8D2 1-1733) (enzyme)
  stoichiometry N: 2
